For this assay, the target named is GST-tagged p63RhoGEF (UniProt Q86VW2). The assay is described as follows: pull-down.

Data on two substances can be found in article PMC2603627.

Chain of UniProt Q86VW2 (Q86VW2 whole entry): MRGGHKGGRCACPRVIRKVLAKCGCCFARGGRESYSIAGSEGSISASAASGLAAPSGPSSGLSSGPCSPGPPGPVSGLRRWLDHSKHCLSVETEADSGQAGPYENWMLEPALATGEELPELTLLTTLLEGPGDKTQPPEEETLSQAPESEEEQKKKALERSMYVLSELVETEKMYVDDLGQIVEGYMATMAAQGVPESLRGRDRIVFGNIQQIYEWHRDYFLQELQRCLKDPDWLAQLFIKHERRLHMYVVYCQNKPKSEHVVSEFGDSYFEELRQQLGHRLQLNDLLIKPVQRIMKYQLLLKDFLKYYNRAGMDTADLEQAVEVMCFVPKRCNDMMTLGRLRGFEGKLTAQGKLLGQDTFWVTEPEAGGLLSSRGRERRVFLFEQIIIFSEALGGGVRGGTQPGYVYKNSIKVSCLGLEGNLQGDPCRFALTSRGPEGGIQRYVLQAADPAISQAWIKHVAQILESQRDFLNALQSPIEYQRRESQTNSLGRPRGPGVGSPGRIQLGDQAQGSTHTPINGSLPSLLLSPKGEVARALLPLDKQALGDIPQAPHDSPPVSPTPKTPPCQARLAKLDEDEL

In turn, “FLAG-MLK3^KR (kinase-deficient, ATP-binding point mutant of MLK3) (from UniProt Q16584 1-847) (enzyme)” returned a % associated MLK3/input MLK3 after overnight incubation of 44%.

Turning to “FLAG-MLK3^KR/T277D,S281D (from UniProt Q16584 1-847) (enzyme)”, the amount in GST-p63RhoGEF complexes relative to FLAG-MLK3^KR was 2 fold.
